From patent EP1482987B1 (Bracco Suisse SA, dated 2014)
Values belong to the binder of their own block, whether it stands above or below them. *1 amine or outer side, *2 acyl side, *3 side chain or, on linkers, in order; H or OH if unused. Bridges are numbered along the chain shown (N, C = ends). Roman numbers before positions name the chains, in order. Primed or numbered codes have the meaning given here. Where no end group is shown, it is not given here. Side-chain parts run from the residue outwards. The star is where a group is joined. ivDde′ = (4,4-dimethyl-2,6-dioxocyclohex-1-ylidene)-3-methylbutyl protecting group, CC(C)CC(=C1C(=O)CC(C)(C)CC1=O)*; Biotin = O=C1N[C@H]2[C@H](CS[C@H]2CCCCC(=O)*)N1; Glutaryl = O=C(CCCC(=O)[*:2])[*:1]; AEEA = NCCOCCOCC(=O)O

Legend:
[1] = molecular target: KDR on human umbilical vein endothelial cells (HUVECs) (human, UniProt P35968 20-1356); assay: cell-based or functional assay
Chain of KDR on human umbilical vein endothelial cells (HUVECs) (P35968 20-1356): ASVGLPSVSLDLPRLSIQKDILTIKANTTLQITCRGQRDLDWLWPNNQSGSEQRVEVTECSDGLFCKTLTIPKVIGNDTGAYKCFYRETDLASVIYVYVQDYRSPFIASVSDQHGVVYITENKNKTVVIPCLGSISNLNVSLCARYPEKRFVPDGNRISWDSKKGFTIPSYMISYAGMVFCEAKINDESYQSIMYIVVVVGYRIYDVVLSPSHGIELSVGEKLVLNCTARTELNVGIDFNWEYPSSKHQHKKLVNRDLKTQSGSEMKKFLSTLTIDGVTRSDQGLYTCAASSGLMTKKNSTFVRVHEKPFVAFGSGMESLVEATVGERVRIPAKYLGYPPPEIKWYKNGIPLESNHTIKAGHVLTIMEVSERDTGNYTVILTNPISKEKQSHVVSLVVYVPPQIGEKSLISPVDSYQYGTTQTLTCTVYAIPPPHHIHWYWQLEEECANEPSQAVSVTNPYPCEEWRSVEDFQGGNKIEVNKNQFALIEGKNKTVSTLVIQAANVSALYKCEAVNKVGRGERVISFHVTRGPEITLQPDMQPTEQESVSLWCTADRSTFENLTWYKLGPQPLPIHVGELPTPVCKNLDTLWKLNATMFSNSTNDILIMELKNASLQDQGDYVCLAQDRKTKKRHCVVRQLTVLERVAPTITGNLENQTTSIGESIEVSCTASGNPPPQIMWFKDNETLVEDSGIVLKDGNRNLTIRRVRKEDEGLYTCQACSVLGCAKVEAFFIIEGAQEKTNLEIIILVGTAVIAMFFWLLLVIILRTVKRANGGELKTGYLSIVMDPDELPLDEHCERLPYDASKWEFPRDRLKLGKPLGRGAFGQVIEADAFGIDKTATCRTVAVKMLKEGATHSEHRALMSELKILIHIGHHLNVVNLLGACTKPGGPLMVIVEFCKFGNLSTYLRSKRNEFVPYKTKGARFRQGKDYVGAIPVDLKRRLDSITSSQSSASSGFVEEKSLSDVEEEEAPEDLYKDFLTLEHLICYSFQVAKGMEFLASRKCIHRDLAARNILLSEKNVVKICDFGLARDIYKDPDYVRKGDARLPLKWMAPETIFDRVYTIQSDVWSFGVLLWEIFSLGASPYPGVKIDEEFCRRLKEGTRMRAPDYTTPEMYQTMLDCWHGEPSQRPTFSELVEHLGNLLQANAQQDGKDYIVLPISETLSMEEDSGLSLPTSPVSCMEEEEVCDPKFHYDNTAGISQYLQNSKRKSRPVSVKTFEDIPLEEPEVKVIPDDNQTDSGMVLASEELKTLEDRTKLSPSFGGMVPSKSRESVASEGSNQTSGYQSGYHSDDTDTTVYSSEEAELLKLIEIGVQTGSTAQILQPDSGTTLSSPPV

[2] = molecular target: KDR (full-length receptor) expressed on transiently transfected 293H cells (human) (UniProt P35968); assay: competition with 300 pM 125I-VEGF on KDR-transfected 293H cells; peptide 0.3 µM
Chain of KDR (full-length receptor) expressed on transiently transfected 293H cells (human) (P35968 20-1356): as above

[3] = molecular target: KDR (full-length receptor) expressed on transiently transfected 293H cells (human) (UniProt P35968); assay: competition with 300 pM 125I-VEGF on KDR-transfected 293H cells; peptide 30 µM
Soluble KDR receptor = Soluble KDR receptor (UniProt P35968 20-764, limits assumed); assay: SPR (Biacore 3000), soluble KDR on CM5
Chain of Soluble KDR receptor (P35968 20-764 limits assumed): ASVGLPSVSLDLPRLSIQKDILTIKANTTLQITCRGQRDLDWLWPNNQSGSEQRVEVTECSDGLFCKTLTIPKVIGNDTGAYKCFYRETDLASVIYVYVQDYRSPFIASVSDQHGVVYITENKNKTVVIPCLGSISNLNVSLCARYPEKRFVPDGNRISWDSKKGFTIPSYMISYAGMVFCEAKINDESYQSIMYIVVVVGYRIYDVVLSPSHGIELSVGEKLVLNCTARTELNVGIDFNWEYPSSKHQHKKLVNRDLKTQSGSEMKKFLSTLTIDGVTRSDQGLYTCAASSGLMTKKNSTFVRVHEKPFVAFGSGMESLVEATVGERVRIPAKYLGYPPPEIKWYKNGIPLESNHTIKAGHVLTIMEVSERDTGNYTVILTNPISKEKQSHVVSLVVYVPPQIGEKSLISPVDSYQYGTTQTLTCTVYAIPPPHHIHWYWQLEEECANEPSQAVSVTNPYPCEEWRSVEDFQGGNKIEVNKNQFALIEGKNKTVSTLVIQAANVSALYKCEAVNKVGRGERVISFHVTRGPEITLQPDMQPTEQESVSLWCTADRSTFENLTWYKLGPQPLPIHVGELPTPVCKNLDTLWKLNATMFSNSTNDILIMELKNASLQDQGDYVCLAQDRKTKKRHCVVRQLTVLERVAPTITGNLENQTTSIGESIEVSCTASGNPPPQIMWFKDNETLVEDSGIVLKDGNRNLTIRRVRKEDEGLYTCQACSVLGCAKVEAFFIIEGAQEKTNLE

B1: P12-XB (peptide)
peptide: Ac-AGPTWCEDDWYYCWLFGTGGGK([AEEA-AEEA-Biotin])-NH2
modifications: disulfide 6-13
SMILES: CC(=O)N[C@@H](C)C(=O)NCC(=O)N1CCC[C@H]1C(=O)N[C@H](C(=O)N[C@@H](Cc1c[nH]c2ccccc12)C(=O)N[C@H]1CSSC[C@@H](C(=O)N[C@@H](Cc2c[nH]c3ccccc23)C(=O)N[C@@H](CC(C)C)C(=O)N[C@@H](Cc2ccccc2)C(=O)NCC(=O)N[C@H](C(=O)NCC(=O)NCC(=O)NCC(=O)N[C@@H](CCCCNC(=O)COCCOCCNC(=O)COCCOCCNC(=O)CCCC[C@@H]2SC[C@@H]3NC(=O)N[C@@H]32)C(N)=O)[C@@H](C)O)NC(=O)[C@H](Cc2ccc(O)cc2)NC(=O)[C@H](Cc2ccc(O)cc2)NC(=O)[C@H](Cc2c[nH]c3ccccc23)NC(=O)[C@H](CC(=O)O)NC(=O)[C@H](CC(=O)O)NC(=O)[C@H](CCC(=O)O)NC1=O)[C@@H](C)O
IC50, receptor activation assay [1]: 0.1 µM
% inhibition of 125I-VEGF binding [2]: 81%
% inhibition of 125I-VEGF binding [3]: 104%

B2: P3-D (peptide)
peptide: Ac-AGWLECYAEFGHCYNFGTGGGK-NH2
modifications: disulfide 6-13
SMILES: CC(=O)N[C@@H](C)C(=O)NCC(=O)N[C@@H](Cc1c[nH]c2ccccc12)C(=O)N[C@@H](CC(C)C)C(=O)N[C@@H](CCC(=O)O)C(=O)N[C@H]1CSSC[C@@H](C(=O)N[C@@H](Cc2ccc(O)cc2)C(=O)N[C@@H](CC(N)=O)C(=O)N[C@@H](Cc2ccccc2)C(=O)NCC(=O)N[C@H](C(=O)NCC(=O)NCC(=O)NCC(=O)N[C@@H](CCCCN)C(N)=O)[C@@H](C)O)NC(=O)[C@H](Cc2c[nH]cn2)NC(=O)CNC(=O)[C@H](Cc2ccccc2)NC(=O)[C@H](CCC(=O)O)NC(=O)[C@H](C)NC(=O)[C@H](Cc2ccc(O)cc2)NC1=O
inhibition of VEGF-induced KDR phosphorylation [1]: ≥ 50 % inhibition at 10 µM

B5: D1 (peptide)
peptide 1: AGPTWCEDDWYYCWLFGTGGGK
peptide 2: VCWEDSWGGEVCFRYDPGGGK
modifications: linker (positions not given here) via Glutaryl; disulfide I:6-I:13, II:2-II:12; also: two chains linked by a glutaryl linker, exact groups only in a drawing
IC50, receptor activation assay [1]: 0.0005 to 0.001 µM

Binder: GDSRVCWEDSWGGEVCFRYDP [P6]
% inhibition of 125I-VEGF binding [2]: 52.3%
% inhibition of 125I-VEGF binding [3]: 96.3%

Continued, values first:

fold increase in affinity over P10 (Soluble KDR receptor): > 560 fold
B3: Head-to-head dimer (P9/P10 heterodimer) (peptide)
peptide 1: AQEPEGYAYWEVITLYHEEDGDGG
peptide 2: AQAFPRFGGDDYWIQQYLRYTDGG
modifications: bridge I:N-II:N; not fully specified (N-terminus); also: head-to-head heterodimer, N-termini joined by oxime
notes: also called H-H dimer

inhibition of VEGF-induced KDR phosphorylation [1]: ≥ 50 % inhibition at 10 µM
B4: P8-D (peptide)
peptide: Ac-GDPDTCTMWGDSGRWYCFPADPGGGK-NH2
modifications: disulfide 6-17
SMILES: CSCC[C@@H]1NC(=O)[C@H]([C@@H](C)O)NC(=O)[C@@H](NC(=O)[C@@H](NC(=O)[C@H](CC(=O)O)NC(=O)[C@@H]2CCCN2C(=O)[C@H](CC(=O)O)NC(=O)CNC(C)=O)[C@@H](C)O)CSSC[C@@H](C(=O)N[C@@H](Cc2ccccc2)C(=O)N2CCC[C@H]2C(=O)N[C@@H](C)C(=O)N[C@@H](CC(=O)O)C(=O)N2CCC[C@H]2C(=O)NCC(=O)NCC(=O)NCC(=O)N[C@@H](CCCCN)C(N)=O)NC(=O)[C@H](Cc2ccc(O)cc2)NC(=O)[C@H](Cc2c[nH]c3ccccc23)NC(=O)[C@H](CCCNC(=N)N)NC(=O)CNC(=O)[C@H](CO)NC(=O)[C@H](CC(=O)O)NC(=O)CNC(=O)[C@H](Cc2c[nH]c3ccccc23)NC1=O

inhibition of VEGF-induced KDR phosphorylation [1]: ≥ 50 % inhibition at 10 µM
Binder: Ac-AQGDYVYWEIIELTGATDHTPPGGGK-NH2 [P11-D]

inhibition of VEGF-induced KDR phosphorylation [1]: ≥ 50 % inhibition at 10 µM
B6: P7-E (peptide)
peptide: Ac-GDWWECK(ivDde′)REEYRNTTWCAWADPGGGK-NH2
modifications: disulfide 6-17
SMILES: CC(=O)NCC(=O)N[C@@H](CC(=O)O)C(=O)N[C@@H](Cc1c[nH]c2ccccc12)C(=O)N[C@@H](Cc1c[nH]c2ccccc12)C(=O)N[C@@H](CCC(=O)O)C(=O)N[C@H]1CSSC[C@@H](C(=O)N[C@@H](C)C(=O)N[C@@H](Cc2c[nH]c3ccccc23)C(=O)N[C@@H](C)C(=O)N[C@@H](CC(=O)O)C(=O)N2CCC[C@H]2C(=O)NCC(=O)NCC(=O)NCC(=O)N[C@@H](CCCCN)C(N)=O)NC(=O)[C@H](Cc2c[nH]c3ccccc23)NC(=O)[C@H]([C@@H](C)O)NC(=O)[C@H]([C@@H](C)O)NC(=O)[C@H](CC(N)=O)NC(=O)[C@H](CCCNC(=N)N)NC(=O)[C@H](Cc2ccc(O)cc2)NC(=O)[C@H](CCC(=O)O)NC(=O)[C@H](CCC(=O)O)NC(=O)[C@H](CCCNC(=N)N)NC(=O)[C@H](CCCCNC(CC(C)C)=C2C(=O)CC(C)(C)CC2=O)NC1=O
